Experimental data taken from patent US8871276B2, “Beta-casein assemblies for mucosal delivery of therapeutic bioactive agents” (Technion Research and Development Foundation Ltd., priority 2008, dated 2014).

What was measured:
Type in all cases: physicochemical
[1] = Wide-angle X-ray diffraction (XRD); conditions: powder / lyophilized specimen, 1:8 mole ratio where loaded
Procedure: The operating conditions were CuKα radiation (0.154 nm), voltage 40 kV and current 40 mA, in 20 recording range from 3° to 65°, at room temperature.

[2] = Small angle X-ray scattering (SAXS) of micelles; conditions: 1 wt % β-casein, empty or loaded 1:8 protein:celecoxib, pH ~7
[3] = Storage stability / appearance of suspensions and lyophilized powder; conditions: stored at 4 °C, neutral pH
Procedure: Bovine β-casein (>90%; Sigma-Aldrich) was dissolved in pH 7.0 hepes buffer containing 200 mM hepes (MP Biomedicals), 10 mM MgCl2 (Sigma-Aldrich), 20 mM EGTA (Sigma-Aldrich) and 10 mM NaCl (Loba Chemie), and was placed over-night at 4° C. under stirring. The protein solutions were prepared at concentrations ranging from 0.5 to 2 wt % (0.21 to 0.83 mM respectively), and were filtered through a porous membrane of 0.45 μm to avoid large protein aggregates. […] Stirring continued for 30 minutes in room temperature. […] The specimens remained stable i.e., no precipitation was observed, for at least 3 weeks at 4° C.
Protein and protein-drug solutions were lyophilized by freezing in liquid nitrogen followed by drying in a Christ Alpha 1-4 lyophilizer for 24 hours. The specimens were stored in 4° C. until re-suspension in hepes buffer, back to the original concentration (0.5 wt % or 2 wt %), or to a higher concentration of 5 wt %. Re-suspension was performed by weighing the powder, adding a measured amount of buffer and stirring for 30 minutes in room temperature.
The lifetime of the drug-loaded complexes increased to at least 3 weeks at the same temperature. Stability of the assemblies remains when they were transferred to room temperatures. […] This process provided increased stability of the loaded micelles in a dry powder form, for at least 6 months.

[4] = Isothermal titration calorimetry (ITC) of β-casein micellization
Procedure: […] The reaction cell (V=1.43 mL) was filled with degassed solvent (lactic acid at pH 2.6, or phosphate buffer at pH 7.0). The injector-stirrer syringe (289 μL) was loaded with a β-casein micellar solution (20 mg/mL). The micellar solution was injected into the reaction cell in 28 steps of 10 μL aliquots each, and the heat flow was measured. During the titration, the stirring speed was 310 rpm. The duration of each injection was 20 s, and the equilibration time between consecutive injections was 3 min. Such an interval was sufficient to equilibrate the reaction cell after every injection. Each experiment was performed at least three times. Calorimetric data analysis was carried out using Origin 5.0 software (MicroCal).
β-casein micellar solution was titrated into lactic acid buffer (pH 2.6) placed in the ITC cell, and the heat flow was measured as a function of time (FIG. 6A). Three factors contribute to the exothermic enthalpy changes observed at the initial injections: micelle dilution, demicellization, and dilution of individual β-casein molecules. The enthalpy changes decrease in magnitude as more protein is added and the concentration in the ITC cell increases. Eventually, the concentration in the cell exceeds the CMC and only micelle dilution contributes to the heat flow. In FIG. 6B the heat of the reaction, obtained by integrating the peaks of the individual injections given in FIG. 6A, is plotted against the β-casein concentration in the cell. A slow increase in the reaction enthalpy was observed, resulting in micellixation relative cooperativity (MR) of 0.14 mM (FIG. 6b), which is more than twice than the value found at pH 7.0 and IS of 0.1. FIG. 6B also presents the heat of demicellization, ΔHdemic, which equals the enthalpy difference between the two asymptotes of the sigmoid fit of the experimental data (obtained by using the Origin software). It is shown that at 24° C. ΔHdemic is ≦17.9 kJ/mol, relatively small compared with the −40.53 kJ/mol found at pH 7.0 and IS of 0.1. […] This value is approximately twice the CMC found at pH 7 and ionic strength 0.1. The small ΔHdemic, the high CMC, and the large MR indicate that the driving forces for micellization under acidic conditions are reduced compared with those at physiological pH and high IS.

B1: β-casein: bovine β-casein self-assembled into unloaded micelles in acidic or neutral buffer (protein, UniProt P02666 16-224, looked up)
Beta-casein: RELEELNVPGEIVESLSSSEESITRINKKIEKFQSEEQQQTEDELQDKIHPFAQTQSLVYPFPGPIPNSLPQNIPPLTQTPVVVPPFLQPEVMGVSKVKEAMAPKHKEMPFPKYPVEPFTESQSLTLTDVENLHLPLPLLQSWMHQPHQPLPPTVMFPPQSVLSLSQSKVLPVPQKAVPYPQRDMPIQAFLLYQEPVLGPVRGPFPIIV
modifications: self-assembled micelles
notes: bovine β-casein self-assembled into unloaded micelles in acidic or neutral buffer
- Solid form by X-ray diffraction [1]: amorphous pattern
- Density [2]: 1.23 g/mL
- Lifetime of empty micelles on storage [3]: degraded within a few days
- Micellization relative cooperativity (MR) ([4]; lactic acid pH 2.6, 24 °C): 0.14 mM
- Heat of demicellization ΔHdemic ([4]; pH 2.6, 24 °C): ≤ 4.28 kcal/mol
- CMC ([4]; pH 2.6, 24 °C, by ITC): 1.89 mg/mL
- CMC ([4]; pH 2.6, 25 °C, by ITC): 0.19 wt %
- CMC ([4]; pH 2.6, by ITC): 0.079 mM
- Heat of demicellization ΔHdemic ([4]; pH 7.0, IS 0.1): -9.687 kcal/mol
